Reference: PMC4365997 (Journal of cell science, 2008)

Target: T1, recombinant Rab11a (UniProt P62491 1-216)
T1 sequence (looked up): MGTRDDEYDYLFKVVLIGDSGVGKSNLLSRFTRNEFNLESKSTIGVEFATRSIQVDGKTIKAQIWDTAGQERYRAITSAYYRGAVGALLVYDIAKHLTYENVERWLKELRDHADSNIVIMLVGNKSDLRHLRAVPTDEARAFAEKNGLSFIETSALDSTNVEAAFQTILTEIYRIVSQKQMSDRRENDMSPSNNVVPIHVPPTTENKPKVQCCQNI
Assay: pull-down

B1: Rip11/FIP5(490-652) (domain or fragment, UniProt Q9BXF6 490-652, looked up)
chain: ILGASPHHSSSGEEKAKSSWFGLREAKDPTQKPSPHPVKPLSAAPVEGSPDRKQSRSSLSIALSSGLEKLKTVTSGSIQPVTQAPQAGQMVDTKRLKDSAVLDQSAKYYHLTHDELISLLLQRERELSQRDEHVQELESYIDRLLVRIMETSPTLLQIPPGPP
binding result: binds
